Test results as given in paper PMC12479363 (Nature Immunology, 2025).

Biological target: SK56
Test: MST

B1: GSDMC-NT–GFP (domain or fragment)
chain: MPSMLERISKNLVKEIGSKDLTPVKYLLSATKLRQFVILRKKKDSRSSFWEQSDYVPVEFSLNDILEPSSSVLETVVTGPFHFSDIMIQKHKADMGVNVGIEVSVSGEASVDHGCSLEFQIVTIPSPNLEDFQKRKLLDPEPSFLKECRRRGDNLYVVTEAVELINNTVLYDSSSVNILGKIALWITYGKGQGQGESLRVKKKALTLQKGMVMAYKRKQLVIKEKAILISDDDEQRTFQD
**Q.** For B1, which Kd is on record?
**A.** ~220 nM
